pIC50: −log10 of the molar value.
Tests used:
[1] = molecular target: T1, human IGFBP-1 (human, UniProt P08833 26-259); experiment: competitive phage ELISA
T1 construct: biotinylated in the ELISA formats; amine-coupled to the chip in peptide kinetics
T1 sequence (looked up): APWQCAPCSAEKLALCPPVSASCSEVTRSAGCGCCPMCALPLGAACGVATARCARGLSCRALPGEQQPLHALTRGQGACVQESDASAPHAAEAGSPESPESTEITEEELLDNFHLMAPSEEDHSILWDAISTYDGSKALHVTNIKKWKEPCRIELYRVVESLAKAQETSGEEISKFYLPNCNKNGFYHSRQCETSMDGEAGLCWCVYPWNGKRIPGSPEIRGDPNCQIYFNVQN

[2] = molecular target: T2, recombinant human IGFBP-3 (human, UniProt P17936 28-291); experiment: competitive phage ELISA
T2 construct: biotinylated and held on a streptavidin chip in the ALS experiment
T2 sequence (P17936 28-291 limits assumed): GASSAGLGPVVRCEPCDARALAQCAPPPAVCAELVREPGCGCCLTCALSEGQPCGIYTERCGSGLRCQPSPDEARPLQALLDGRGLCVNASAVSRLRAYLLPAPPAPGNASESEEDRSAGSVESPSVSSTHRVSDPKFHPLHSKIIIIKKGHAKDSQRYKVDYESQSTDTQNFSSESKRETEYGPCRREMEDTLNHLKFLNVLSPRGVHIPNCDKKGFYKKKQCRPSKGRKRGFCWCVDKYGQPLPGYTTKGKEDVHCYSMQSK

Substance	pIC50 [1]	relative IC50 (mut/G1S-A70V) [1]	pIC50 [2]	relative IC50 (mut/G1S-A70V) [2]
Y60A IGF-1 (G1S-A70V background) on phage (from UniProt P69168 267-424) (ligand)	8.18	0.8	9.28	0.7
V44A IGF-1 (G1S-A70V background) on phage (from UniProt P69168 267-424) (ligand)	7.73	2.3	8.99	1.4
M59A IGF-1 (G1S-A70V background) on phage (from UniProt P69168 267-424) (ligand)	7.88	1.6	9.13	1
S69A IGF-1 (G1S-A70V background) on phage (from UniProt P69168 267-424) (ligand)	7.89	1.6	9.15	1.2
S1G IGF-1 (single mutant of G1S-A70V) on phage (from UniProt P69168 267-424) (ligand)	7.95	1.4	9.00	1.3
I43A IGF-1 (G1S-A70V background) on phage (from UniProt P69168 267-424) (ligand)	7.50	3.8	8.93	1.6
G7A IGF-1 (G1S-A70V background) on phage (from UniProt P69168 267-424) (ligand)	< 6.00	> 100	8.34	6.1
G30A IGF-1 (G1S-A70V background) on phage (from UniProt P69168 267-424) (ligand)	8.15	0.9	9.24	0.8
T41A IGF-1 (G1S-A70V background) on phage (from UniProt P69168 267-424) (ligand)	7.86	1.7	9.37	0.6
L64A IGF-1 (G1S-A70V background) on phage (from UniProt P69168 267-424) (ligand)	7.92	1.5	9.03	1.2
T4A IGF-1 (G1S-A70V background) on phage (from UniProt P69168 267-424) (ligand)	7.71	2.4	9.10	1.1
S35A IGF-1 (G1S-A70V background) on phage (from UniProt P69168 267-424) (ligand)	7.93	1.4	9.33	0.6
L5A IGF-1 (G1S-A70V background) on phage (from UniProt P69168 267-424) (ligand)	7.26	6.7	8.82	2
D53A IGF-1 (G1S-A70V background) on phage (from UniProt P69168 267-424) (ligand)	7.82	1.9	8.98	1.2
R37A IGF-1 (G1S-A70V background) on phage (from UniProt P69168 267-424) (ligand)	7.91	1.5	9.12	1
R50A IGF-1 (G1S-A70V background) on phage (from UniProt P69168 267-424) (ligand)	7.79	2	9.19	0.9

Substance	pIC50 [1]	relative IC50 (mut/G1S-A70V) [1]	pIC50 [2]	relative IC50 (mut/G1S-A70V) [2]
P66A IGF-1 (G1S-A70V background) on phage (from UniProt P69168 267-424) (ligand)	8.03	1.1	9.24	0.8
K65A IGF-1 (G1S-A70V background) on phage (from UniProt P69168 267-424) (ligand)	7.91	1.5	9.16	0.9
R55A IGF-1 (G1S-A70V background) on phage (from UniProt P69168 267-424) (ligand)	8.05	1.1	9.18	0.9
E3A IGF-1 (G1S-A70V background) on phage (from UniProt P69168 267-424) (ligand)	6.56	33.9	8.98	1.4
G32A IGF-1 (G1S-A70V background) on phage (from UniProt P69168 267-424) (ligand)	7.96	1.3	9.12	1
F49A IGF-1 (G1S-A70V background) on phage (from UniProt P69168 267-424) (ligand)	< 6.00	> 100	8.57	3.6
S51A IGF-1 (G1S-A70V background) on phage (from UniProt P69168 267-424) (ligand)	7.87	1.6	9.19	0.9
D45A IGF-1 (G1S-A70V background) on phage (from UniProt P69168 267-424) (ligand)	8.33	0.6	9.16	0.9
S34A IGF-1 (G1S-A70V background) on phage (from UniProt P69168 267-424) (ligand)	8.02	1.2	8.78	2.2
E9A IGF-1 (G1S-A70V background) on phage (from UniProt P69168 267-424) (ligand)	8.07	1	8.88	1.8
P63A IGF-1 (G1S-A70V background) on phage (from UniProt P69168 267-424) (ligand)	< 6.00	> 100	< 7.00	> 100
E46A IGF-1 (G1S-A70V background) on phage (from UniProt P69168 267-424) (ligand)	8.10	1	9.03	1.3
L57A IGF-1 (G1S-A70V background) on phage (from UniProt P69168 267-424) (ligand)	7.66	2.7	8.75	2.4
R56A IGF-1 (G1S-A70V background) on phage (from UniProt P69168 267-424) (ligand)	7.88	1.6	9.00	1.3
Q40A IGF-1 (G1S-A70V background) on phage (from UniProt P69168 267-424) (ligand)	7.99	1.2	9.25	0.7

From US20030211992A1 (published 2003)
